Data from paper PMC3510486, “The structural basis for the interaction between the CAF1 nuclease and the NOT1 scaffold of the human CCR4–NOT deadenylase complex” (Nucleic Acids Research, 2012).

Molecular target: T1, Hs CAF1, purified for crystallization (human, UniProt Q9UIV1-1 1-285)
T1 construct: human CAF1 (CNOT7); model holds residues Q10-S266 and G274-E280 (chain B); residues up to E280 are seen in the map, so it is probably the whole protein; also called CNOT7; source: E. coli Rosetta2, purified (GSTrap, PreScission cleavage, gel filtration)
T1 sequence (Q9UIV1 whole entry, the tested form may be a part): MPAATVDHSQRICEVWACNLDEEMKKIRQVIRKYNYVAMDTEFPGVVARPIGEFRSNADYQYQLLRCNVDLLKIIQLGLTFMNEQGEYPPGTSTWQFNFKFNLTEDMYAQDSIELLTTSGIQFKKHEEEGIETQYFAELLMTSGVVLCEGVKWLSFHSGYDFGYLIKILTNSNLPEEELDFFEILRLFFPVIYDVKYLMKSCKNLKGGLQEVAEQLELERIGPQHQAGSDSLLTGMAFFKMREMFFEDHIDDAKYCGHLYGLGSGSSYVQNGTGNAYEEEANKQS
Assay: crystal structure; complex of purified NOT1 MIF4G and CAF1 (1.2:1) isolated by gel filtration; hanging drop, 4°C, 0.1 M Tris-HCl pH 8.2, 16% PEG 8000, 0.2 M MgCl2, 0.2 M ammonium sulfate; 2.70 Å
Conditions: both partners purified

- binding result: binds
B1: MIF4G domain of Hs NOT1 (residues 1093-1317), purified for crystallization (domain or fragment, human, UniProt A5YKK6-1 1093-1317, looked up)
chain: ENIQEKIAFIFNNLSQSNMTQKVEELKETVKEEFMPWVSQYLVMKRVSIEPNFHSLYSNFLDTLKNPEFNKMVLNETYRNIKVLLTSDKAAANFSDRSLLKNLGHWLGMITLAKNKPILHTDLDVKSLLLEAYVKGQQELLYVVPFVAKVLESSIRSVVFRPPNPWTMAIMNVLAELHQEHDLKLNLKFEIEVLCKNLALDINELKPGNLLKDKDRLKNLDEQLS
notes: His6 fusion is PreScission-cleavable; also called NOT1 MIF4G domain; source: E. coli BL21 Codon Plus RIL, purified (Ni Sepharose IMAC, gel filtration)
